One test has as its target h5α (human) (UniProt P16234). The experiment in a line: ELISA (OD450), panel 'PDGF-AA BINDING TO PDGFRβ/α CHIMERAS'; axis 'CO…ON (nM)', titrated species not stated. A general note: ELISA stands for enzyme-linked immunosorbent assay.
The target in a further test is 1β4α (PDGFRβ/α chimera). Described as above.
Test [1] deals with β1-3 (shorter version of PDGFRβ, D1D2D3). The experiment in a line: ELISA (OD450), panel 'PDGF-BB BINDING TO hPDGFRβ DELETIONS'; axis 'CO…ON (nM)', titrated species not stated.

Two substances from US20090053241A1 can be followed below.

Sequence of PDGF-BB (ligand) (P01127 82-190): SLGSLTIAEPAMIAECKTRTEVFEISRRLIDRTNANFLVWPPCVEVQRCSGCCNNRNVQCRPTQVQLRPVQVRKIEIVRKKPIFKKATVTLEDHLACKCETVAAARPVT
Sequence of 1β4α (PDGFRβ/α chimera) (P16234 other isoform, or with tags, fused parts or gaps mutant): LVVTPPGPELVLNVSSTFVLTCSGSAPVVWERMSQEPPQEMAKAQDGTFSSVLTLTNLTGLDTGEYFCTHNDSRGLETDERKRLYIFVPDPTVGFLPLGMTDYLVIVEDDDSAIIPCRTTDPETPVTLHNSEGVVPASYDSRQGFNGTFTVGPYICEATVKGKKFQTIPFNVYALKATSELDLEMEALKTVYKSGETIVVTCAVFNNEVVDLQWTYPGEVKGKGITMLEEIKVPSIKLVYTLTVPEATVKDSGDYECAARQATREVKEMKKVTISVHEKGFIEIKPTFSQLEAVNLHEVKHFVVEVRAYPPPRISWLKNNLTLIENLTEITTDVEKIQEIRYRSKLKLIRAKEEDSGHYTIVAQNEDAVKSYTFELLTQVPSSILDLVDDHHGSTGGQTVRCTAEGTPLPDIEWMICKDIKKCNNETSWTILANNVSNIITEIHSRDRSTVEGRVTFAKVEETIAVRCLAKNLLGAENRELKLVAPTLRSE
Sequence of h5α (human) (P16234 24-524 limits assumed): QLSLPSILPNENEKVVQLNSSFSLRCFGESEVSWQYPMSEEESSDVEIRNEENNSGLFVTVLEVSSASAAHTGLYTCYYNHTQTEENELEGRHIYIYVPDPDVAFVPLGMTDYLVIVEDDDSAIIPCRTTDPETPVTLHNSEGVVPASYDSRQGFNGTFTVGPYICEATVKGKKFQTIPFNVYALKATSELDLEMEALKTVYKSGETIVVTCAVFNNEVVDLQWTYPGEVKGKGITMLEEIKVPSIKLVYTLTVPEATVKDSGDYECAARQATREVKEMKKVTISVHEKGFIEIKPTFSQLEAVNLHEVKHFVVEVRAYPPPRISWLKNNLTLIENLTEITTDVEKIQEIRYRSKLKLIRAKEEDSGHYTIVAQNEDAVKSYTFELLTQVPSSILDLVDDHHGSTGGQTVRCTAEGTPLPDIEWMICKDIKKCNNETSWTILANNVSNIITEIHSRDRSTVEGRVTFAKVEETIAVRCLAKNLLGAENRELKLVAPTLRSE

For PDGF-AA (ligand), the EC50 (read off the curve) was 0.02 nM with h5α (human) and 0.05 nM with 1β4α (PDGFRβ/α chimera).
Regarding PDGF-BB (ligand), the EC50 (read off the curve) in test [1] was 0.06 nM.

What is called EC50 (read off the curve) is the concentration giving half of the maximal effect.
